Laboratory results as given in patent publication US20240181022A1, “AMURINS LYSINS, AND LYSIN-ANTIMICROBIAL PEPTIDE (AMP) CONSTRUCTS ACTIVE AGAINST GRAM-NEGATIVE BACTERIA” (priority 2021, published 2024).
Where no end group is shown, it is not given here.

Columns and labels:
[1] = tested on: E. cloacae; assay: Checkerboard synergy assay (FICI) against E. cloacae; format: cell-based, Enterobacter cloacae; conditions: E. cloacae ATCC 13047
Description: (§1) Any known method to assess MIC may be used.
(§2) Checkerboards are constructed by first preparing columns of e.g., a 96-well polypropylene microtiter plate, wherein each well has the same amount of antibiotic diluted 2-fold along the horizontal axis. […] Bacteria are added to the drug combinations at concentrations of 1×10^5 […] in CAA, for example, with or without human serum or pulmonary surfactant. […] Summation fractional inhibitory concentrations (ΣFICs) are calculated for each drug and the minimum ΣFIC value (ΣFICmin) is used to determine the effect of the Chp peptide/antibiotic combination.
(§3) GN370 was further tested in combination with up to seven additional antibiotics (in addition to meropenem) against a variety of bacterial strains, including P. aeruginosa, A. baumannii, E. coli, E. cloacae, and K. pneumoniae. GN370 and the subject antibiotics were tested in a checkerboard assay format, and FICI values were determined, wherein ≤0.5 indicates synergy, >0.5-≤1 indicates additive; and >1 indicates indifferent.

[2] = tested on: A. baumannii; assay: Checkerboard synergy assay (FICI) against A. baumannii; format: cell-based, Acinetobacter baumannii; conditions: A. baumannii ATCC BAA-747
Description: as §1, §2, §3

[3] = tested on: P. aeruginosa AR-769; assay: Repeat dose study of AM1 in the rabbit pulmonary infection model; format: in vivo; conditions: for Log CFU change v. pre-treatment (at 6 hours) / Mean Bacterial Density in Lung ± SD / Survival: rabbit
[4] = tested on: Raoultella ornithinolytica; assay: MIC by broth microdilution against Raoultella ornithinolytica; format: cell-based; conditions: N 1
Description: (§4) MIC values were determined by broth microdilution against clinical isolates and resistant isolates from a wide range of bacterial species, including isolates from the CDC Antibiotic Resistance bank, including the GN ESKAPE pathogens and E. coli, including carbapenem-resistant Enterobacteriaciae, Acinetobacter, and Pseudomonas.

[5] = tested on: K. pneumoniae (1_1_5 HM-44); assay: microbe, parasite or virus in culture; format: cell-based, Klebsiella pneumoniae
[6] = tested on: Citrobacter freundii; assay: MIC by broth microdilution against Citrobacter freundii; format: cell-based; conditions: N 2
Description: as §4

[7] = tested on: E. cloacae; assay: GN370 time-kill assay, E. cloacae; format: cell-based, Enterobacter cloacae; conditions: for Log10 CFU/mL: E. cloacae ATCC 29941
Description: A kinetic analysis of GN370 bactericidal activity was performed using a time-kill assay format in which CFU reductions of each target organism (P. aeruginosa, K. pneumoniae, A. baumannii, E. coli, and E. cloacae) were measured over 24 hours at 37° C. […] Bactericidal activity was defined as CFU reductions of ≥3-log 10 CFU/mL as compared to the inoculum at the 24-hour time point.

[8] = tested on: Kluyvera ascorbate; assay: MIC by broth microdilution against Kluyvera ascorbate; format: cell-based; conditions: N 1
Description: as §4

[9] = tested on: E. cloacae (ATCC 13047); assay: microbe, parasite or virus in culture; format: cell-based, Enterobacter cloacae
[10] = tested on: K. pneumoniae; assay: MBEC against K. pneumoniae biofilm; format: cell-based, Klebsiella pneumoniae; conditions: MDR and XDR K. pneumoniae (11)
[11] = tested on: A. baumannii; assay: MBEC against A. baumannii biofilm; format: cell-based, Acinetobacter baumannii; conditions: MDR and XDR A. baumannii (22)
[12] = tested on: Gram-negative bacteria biofilm; assay: Antibiofilm activity (MBEC) against Gram-negative bacteria, incl. MDR and XDR isolates; format: cell-based; conditions: range of MDR and XDR isolates
[13] = tested on: Burkholderia cepacia; assay: MIC by broth microdilution against Burkholderia cepacia; format: cell-based; conditions: N 9
Description: as §4

[14] = tested on: E. coli; assay: MIC by broth microdilution against E. coli; format: cell-based, Escherichia coli
[15] = tested on: Enterobacter aerogenes; assay: MIC by broth microdilution against Enterobacter aerogenes; format: cell-based; conditions: N 1
Description: as §4

[16] = tested on: P. aeruginosa; assay: SEM and TEM imaging of membrane damage; format: cell-based, Pseudomonas aeruginosa; conditions: prior to pore formation and lysis
Description: Additionally, the mechanism of action of both the Chp peptides and the lysins and/or lysin-AMP constructs disclosed herein may be evaluated through the use of Scanning Electron Microscopy (SEM) and Transmission Electron Microscopy (TEM) techniques. Due to the rapid permeabilization and depolarization of bacterial membranes when contacted with Chp peptides, as discussed above, membrane damage may be visualized through SEM and TEM. […] TEM and SEM images taken approximately 2 minutes after Chp peptide (8 μg/mL) contact with P. aeruginosa show the formation of multiple bulges on the bacterial membrane, as well as the appearance of pore formation and degradation of the cellular membrane. TEM and SEM images taken approximately 5 minutes after Chp peptide (8 μg/mL) contact with P. aeruginosa show continued formation of membrane bulges, along with degradation of the cellular membrane, condensation of electron-dense cytoplasmic material, formation of spheroplasts, and pore formation. TEM and SEM images taken approximately 20 minutes after Chp peptide (8 μg/mL) contact with P. aeruginosa show multiple instances of pore formation and the appearance of ghost cells, empty of intracellular content.

[17] = tested on: Ralstonia mannitolilytica; assay: MIC by broth microdilution against Ralstonia mannitolilytica; format: cell-based; conditions: N 10
Description: as §4

[18] = AM1 1 mg/kg i.v. every 24 hours (n = 7)
[19] = AM1 5 mg/kg i.v. every 24 hours (n = 8)
[20] = Escherichia coli, AR Bank, N 17
[21] = Escherichia coli, Weill Cornell, N 13
[22] = Escherichia coli, all isolates, N 30

Molecule: C[C@@H](O)[C@H]1C(=O)N2C(C(=O)O)=C(S[C@@H]3CN[C@H](C(=O)N(C)C)C3)[C@H](C)[C@H]12 [meropenem, reference compound]
- FICI of the antibiotic with GN370 [1]: 0.531
- FICI of the antibiotic with GN370 [2]: 0.5

Molecule: MRLKMARRRYRLPRRRSRRLFSRTALRMHPRNRLRRIMRGGIRF [AM1]
- mean bacterial density in lungs compared to the vehicle control group ([3]; agent alone, intravenous, treatment from 6 hours post-infection): moderate to no CFU/g reduction
- Log CFU change v. pre-treatment (at 6 hours) [3, 18]: 1.56 Log CFU
- Mean Bacterial Density in Lung ± SD [3, 18]: 9.02 ± 1.49 Log CFU/lung
- Survival [3, 18]: 0%
- Log CFU change v. pre-treatment (at 6 hours) [3, 19]: 1.80 Log CFU
- Mean Bacterial Density in Lung ± SD [3, 19]: 8.98 ± 1.47 Log CFU/lung
- Survival [3, 19]: 37.5%

B1: GN370: lysin-AMP construct, SEQ ID NO: 149: MIDR, FIRL and NPTH moieties N-terminal to GN202 lysin (protein)
chain: MIDRFIRLNPTHGPRRPRRPGRRAPVRTSQRGIDLIKSFEGLRLSAYQDSVGVWTIGYGTTRGVTRYMTITVEQAERMLSNDIQRFEPELDRLAKVPLNQNQWDALMSFVYNLGAANLASSTLLDLLNKGDYQGAADQFPHWVNAGGKRLDGLVKRRAAERALFLEPLS
modifications: GN370 lysin
- MIC Range [4]: 0.25 µg/mL
- MIC ([5]; K. pneumoniae 1_1_5_HM-44, target organism of serial passage study): 2 µg/mL
- change in MIC over 28-day serial passage ([5]; K. pneumoniae (1_1_5 HM-44)): ≤ 2 fold
- change in MIC over 28-day serial passage ([5]; K. pneumoniae, another instance): no change
- MIC Range [6]: 0.5 to 2 µg/mL
- Log10 CFU/mL ([7]; 0.2x MIC, 1 hr): 5.0 Log10 CFU/mL
- Log10 CFU/mL ([7]; 0.2x MIC, 3 hr): 5.0 Log10 CFU/mL
- Log10 CFU/mL ([7]; 0.2x MIC, 24 hr): 9.0 Log10 CFU/mL
- Log10 CFU/mL ([7]; 1x MIC, 1 hr): 2.4 Log10 CFU/mL
- Log10 CFU/mL ([7]; 1x MIC, 3 hr): 1.5 Log10 CFU/mL
- Log10 CFU/mL ([7]; 1x MIC, 24 hr): 2.3 Log10 CFU/mL
- Log10 CFU/mL ([7]; 2x MIC, 1 hr): 1.6 Log10 CFU/mL
- Log10 CFU/mL ([7]; 2x MIC, 3 hr): 1.6 Log10 CFU/mL
- Log10 CFU/mL ([7]; 2x MIC, 24 hr): 1.6 Log10 CFU/mL
- Log10 CFU/mL ([7]; 5x MIC, 1 hr): 1.5 Log10 CFU/mL
- Log10 CFU/mL ([7]; 5x MIC, 3 hr): 1.5 Log10 CFU/mL
- Log10 CFU/mL ([7]; 5x MIC, 24 hr): 1.5 Log10 CFU/mL
- concentration with bactericidal activity (≥3-log 10 CFU/mL reduction at 24 hours) ([7]; E. cloacae, 37° C.): ≥ 1 ×MIC
- MIC Range [8]: 1 µg/mL
- change in MIC over 28-day serial passage ([9]; E. cloacae (ATCC 13047)): ≤ 2 fold
- MIC ([9]; E. cloacae ATCC 13047, target organism of serial passage study): 1 µg/mL
- MBEC50 [10]: 1 µg/mL
- MBEC90 [10]: 2 µg/mL
- MBEC Range [10]: 0.5 to 4 µg/mL
- Number of isolates at MBEC 0.5 μg/mL [10]: 3
- Number of isolates at MBEC 1 μg/mL [10]: 3
- Number of isolates at MBEC 2 μg/mL [10]: 4
- Number of isolates at MBEC 4 μg/mL [10]: 1
- MBEC50 [11]: 1 µg/mL
- MBEC90 [11]: 2 µg/mL
- MBEC Range [11]: 0.5 to 2 µg/mL
- Number of isolates at MBEC 0.5 μg/mL [11]: 2
- Number of isolates at MBEC 1 μg/mL [11]: 12
- Number of isolates at MBEC 2 μg/mL [11]: 8
- MBEC [12]: ≤ 4 µg/mL
- MIC50 [13]: >64 µg/mL
- MIC90 [13]: >64 µg/mL
- MIC Range [13]: >64 µg/mL
- MIC ([14]; E. coli AR-128): (MIC = 0.25 μg/mL)
- MIC ([14]; E. coli ATCC 25922 (head of Table 19)): 0.5 µg/mL
- MIC90 ([14]; E. coli clinical and resistant isolates): 1 µg/mL
- MIC50 [14, 20]: 0.5 µg/mL
- MIC90 [14, 20]: 1 µg/mL
- MIC Range [14, 20]: 0.125 to 1 µg/mL
- MIC50 [14, 21]: 0.25 µg/mL
- MIC90 [14, 21]: 0.5 µg/mL
- MIC Range [14, 21]: 0.064 to 4 µg/mL
- MIC50 [14, 22]: 0.25 µg/mL
- MIC90 [14, 22]: 1 µg/mL
- MIC Range [14, 22]: 0.0625 to 4 µg/mL
- MIC Range [15]: 1 µg/mL
- membrane damage seen by TEM and SEM [16]: more extensive and larger membrane blebs
- MIC50 [17]: >64 µg/mL
- MIC90 [17]: >64 µg/mL
- MIC Range [17]: >64 µg/mL
